# Reference: article PMC2996049 (Structure (London, England : 1993), 2010)
# Target: the molecule itself
# Assay: SEC
protein,measurement,value
"Full-length His6-tagged NrpR from Methanococcus maripaludis (MmNrpR) (natural protein, UniProt Q6LZL7 1-536, looked up) MDSNIDVEILSILSEASAPVGAKIIADSLKDRGYDIGERAVRYHLKVLDENSLTKKLGYSGREITEKGIEELEKANISFRIGSVFSQVIEKLYLSDFPSKVLINTAKFEGDYKTIKEMVLRSFEAGYSVGDYLNIKKKGNTVSVETLCSITFDNFLLKNGIIPTPEYGGIVKFEDYEPVNFEGVIDFKSSSIDPLVAFIMQGKTDVIGVIENGEGLVPANFRVIPKSSEKQFETILKKDMLNSVLAYGTENVLGMNLNPEQIGVVLVGGLTPLCVPHESGYTADISAATQLKDISSMEKKTKGFLEAKKKKGKFKVTPVLSKMLSKMQTINYDIEDKKGNVVVNTAKIPIEYKEEAINALKDSYENKLAISDRLKVECDDKFLNAYTICSLTVDGVFLKNKIPVIPYYGGILEVKADKKRFIEAIDYEGTSLDPHEVFFNKADGKNYILAGIRKVPMSASEKLIELNEKLGWNSIIEIGRPNNDICGVRVEKCMFGITTIGGTNPFANIRKNNIPVEMKTLHKSIDYSELTHYDDI",stoichiometry N,2
